Experimental data published in the supplement of paper PMC9876800.

System: peptide library, one residue held at a place counted from the S/T acceptor
Experiment: relative phosphorylation of the sub-library (ratio to the mean residue at this position); higher = residue favoured
Conditions: human
How it was run: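 Each biotinylated degenerate peptide sub-library fixed one residue at one position around a central Ser/Thr and was incubated with a purified recombinant kinase, a human or orthologue construct, in 384-well plates. The 90 min reactions, under kinase-specific conditions, contained 50 μM peptide and 50 μM ATP spiked with γ-32P-ATP. Phosphorylation was read by phosphorimaging spots on streptavidin membranes and quantifying them by densitometry. Relative sub-library phosphorylation expresses each value as a ratio to the mean residue at that position.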

Sequence of NEK7, construct: Full length (Q8TDX7 whole entry, looked up): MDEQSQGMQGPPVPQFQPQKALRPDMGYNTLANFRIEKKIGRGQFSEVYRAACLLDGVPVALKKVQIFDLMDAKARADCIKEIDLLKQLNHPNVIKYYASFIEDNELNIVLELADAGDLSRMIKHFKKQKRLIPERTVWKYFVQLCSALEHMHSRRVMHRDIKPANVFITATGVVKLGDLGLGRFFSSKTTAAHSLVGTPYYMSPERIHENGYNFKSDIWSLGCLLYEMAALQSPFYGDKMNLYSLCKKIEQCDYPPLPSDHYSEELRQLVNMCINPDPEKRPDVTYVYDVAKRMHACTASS

NEK7, construct: Full length (from UniProt Q8TDX7)
relative phosphorylation
Conditions | at +1 | at +2 | at +3 | at +4 | at -1 | at -2 | at -3 | at -4 | at -5
A fixed | 0.653 | 1.05 | 0.923 | 0.86 | 1.05 | 1.12 | 0.975 | 1.02 | 1.07
D fixed | 0.327 | 0.61 | 0.66 | 0.722 | 1.29 | 2.31 | 0.65 | 1.91 | 1.83
E fixed | 0.267 | 0.376 | 0.597 | 0.747 | 1.42 | 1.8 | 0.583 | 1.28 | 1.43
F fixed | 1.54 | 0.717 | 1.21 | 0.846 | 0.646 | 0.87 | 1.94 | 0.839 | 0.989
G fixed | 0.827 | 1.12 | 1.28 | 1.18 | 0.713 | 1.4 | 0.853 | 1.05 | 0.972
H fixed | 1.16 | 1.38 | 1.21 | 1.11 | 1.12 | 1.3 | 0.755 | 1.03 | 1.06
I fixed | 1.28 | 0.812 | 0.957 | 0.919 | 0.569 | 0.433 | 0.494 | 0.647 | 0.831
K fixed | 0.588 | 1.47 | 1.24 | 1.3 | 1.34 | 0.625 | 0.446 | 0.82 | 0.842
L fixed | 1.18 | 0.549 | 1.1 | 0.895 | 1.02 | 0.718 | 2.39 | 0.832 | 0.771
M fixed | 1.78 | 0.693 | 0.899 | 0.948 | 1.03 | 0.973 | 1.46 | 0.823 | 0.703
N fixed | 1 | 1.63 | 0.833 | 0.907 | 1.22 | 1.47 | 0.705 | 1.35 | 1.15
P fixed | 0.242 | 0.691 | 0.703 | 1.09 | 0.234 | 0.356 | 1.3 | 0.918 | 0.886
Q fixed | 1.33 | 0.933 | 0.813 | 0.986 | 1.52 | 0.951 | 0.628 | 0.889 | 0.938
R fixed | 0.865 | 2.1 | 1.08 | 1.16 | 1.21 | 0.626 | 0.652 | 0.959 | 0.878
V fixed | 1.05 | 0.905 | 0.889 | 0.846 | 0.901 | 0.372 | 0.538 | 0.613 | 0.8
W fixed | 1.47 | 0.94 | 1.58 | 1.46 | 0.908 | 0.859 | 1.4 | 1.23 | 1.1
Y fixed | 1.44 | 1.02 | 1.02 | 1.02 | 0.796 | 0.822 | 1.23 | 0.78 | 0.754
pThr fixed | 0.701 | 0.607 | 0.62 | 0.842 | 0.624 | 1 | 0.973 | 1.15 | 0.979
pTyr fixed | 0.816 | 0.62 | 0.836 | 0.681 | 1.68 | 1.6 | 1.12 | 0.861 | 1.12
